For three molecules, activity results are on record in US20240301385, “DNA MODIFYING ENZYMES AND ACTIVE FRAGMENTS AND VARIANTS THEREOF AND METHODS OF USE” (LIFEEDIT THERAPEUTICS, INC., published 2024).

One series deals with nAPG07433.1-APG05840 (synthetic). The series is described as follows: cell_activity; HEK293FT; C>G predominant; PAM SEQ 152. Conditions: tags: SV40 NLS, 3xFLAG N-term; nucleoplasmin NLS C-term.
The target of the next series is T1, APG30129-L32-nAPG07433.1 (synthetic).
T1 chain: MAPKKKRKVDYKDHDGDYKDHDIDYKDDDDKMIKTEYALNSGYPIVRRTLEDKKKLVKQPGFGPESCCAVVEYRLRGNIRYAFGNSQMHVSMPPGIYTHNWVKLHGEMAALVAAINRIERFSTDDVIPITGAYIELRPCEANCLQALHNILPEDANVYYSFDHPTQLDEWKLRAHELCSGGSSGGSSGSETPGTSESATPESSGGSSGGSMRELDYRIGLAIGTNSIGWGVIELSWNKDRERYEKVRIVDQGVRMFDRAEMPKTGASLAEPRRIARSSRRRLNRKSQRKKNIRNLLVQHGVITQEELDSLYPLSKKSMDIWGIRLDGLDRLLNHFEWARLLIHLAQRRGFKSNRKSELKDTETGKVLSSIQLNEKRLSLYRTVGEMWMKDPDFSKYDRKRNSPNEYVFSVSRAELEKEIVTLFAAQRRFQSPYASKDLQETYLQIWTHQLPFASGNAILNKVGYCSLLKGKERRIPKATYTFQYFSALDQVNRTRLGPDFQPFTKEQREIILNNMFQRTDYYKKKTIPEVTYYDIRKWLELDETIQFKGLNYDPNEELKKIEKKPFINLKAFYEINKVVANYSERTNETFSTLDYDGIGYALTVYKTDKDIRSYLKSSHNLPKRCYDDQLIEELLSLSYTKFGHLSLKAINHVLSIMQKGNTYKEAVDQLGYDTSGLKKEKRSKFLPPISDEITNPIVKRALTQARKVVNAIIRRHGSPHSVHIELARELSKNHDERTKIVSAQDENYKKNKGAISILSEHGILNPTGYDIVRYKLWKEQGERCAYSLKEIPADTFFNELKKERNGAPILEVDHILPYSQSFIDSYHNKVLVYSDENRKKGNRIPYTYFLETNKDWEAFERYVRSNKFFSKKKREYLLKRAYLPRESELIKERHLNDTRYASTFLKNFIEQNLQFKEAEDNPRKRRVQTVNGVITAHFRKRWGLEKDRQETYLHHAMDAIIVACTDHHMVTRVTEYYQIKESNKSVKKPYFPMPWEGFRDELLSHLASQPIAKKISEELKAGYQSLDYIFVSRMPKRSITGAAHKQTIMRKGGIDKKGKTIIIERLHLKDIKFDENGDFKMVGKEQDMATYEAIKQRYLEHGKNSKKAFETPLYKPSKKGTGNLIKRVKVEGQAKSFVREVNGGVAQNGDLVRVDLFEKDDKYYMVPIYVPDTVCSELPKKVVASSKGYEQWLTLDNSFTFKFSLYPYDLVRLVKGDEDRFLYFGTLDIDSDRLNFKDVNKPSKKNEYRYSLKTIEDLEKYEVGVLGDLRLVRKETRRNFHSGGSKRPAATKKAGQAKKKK
The series is described as follows: cell_activity; HEK293FT; PAM SEQ 152. Conditions: tags: SV40 NLS, 3xFLAG N-term; nucleoplasmin NLS C-term. Summed up:
(§1)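 Editing read out by next-generation sequencing (MiSeq 2×250) of PCR amplicons spanning the target site, analysed for INDELs or % cytosine conversion per position (position 1 nearest PAM).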

Series [1] addresses APG05840.1-L16-nAPG07433.1-USP2 (synthetic). Put plainly: cell_activity; HEK293FT; PAM SEQ 152. Conditions: tags: SV40 NLS, 3xFLAG N-term; USP2, nucleoplasmin NLS C-term. Summed up: as §1

B1: SGN000930 sgRNA ; SGN000930 target (ssRNA ; dsDNA)
RNA: GAACAACUCAAAUGGAAAUGAAUAUGUCAUAGUUCCAUGAAAGCCAAAAGUGGCUUUGAUGUUUCUAUGAUAAGGGUUUCGGCCCGUGGCGUCGGGGAUCGCCUGCCCAUUCCGAUGGGCUUCUCCCCAUUUAUU
DNA 1: GAACAACTCAAATGGAAATGAATAT
DNA 2: ATATTCATTTCCATTTGAGTTGTTC
For B1, the figures for the activity (with nAPG07433.1-APG05840; in the series with APG30129-L32-nAPG07433.1; in series [1]) were 17.5 % mutated reads, 3.47 % mutated reads and 13.1 % mutated reads, respectively.

B2: SGN000194 sgRNA ; SGN000194 target (ssRNA ; dsDNA)
RNA: GCCGCACAGCAUUCAGGUCGGUCAUAGUUCCAUUAAAGCCAAAAGUGGCUUUGAUGUUUCUAUGAUAAGGGUUUCGACCCGUGGCGUCGGGGAUCGCCUGCCCAUUGAAAUGGGCUUCUCCCCAUUUAUU
DNA 1: GCCGCACAGCATTCAGGTCG
DNA 2: CGACCTGAATGCTGTGCGGC
As for B2, the activity with APG30129-L32-nAPG07433.1 worked out at 5.92 % mutated reads.

B3: SGN001101 sgRNA ; SGN001101 target (ssRNA ; dsDNA)
RNA: AUAUUUUCUUUAAUGGUGCCAGGCAGUCAUAGUUCCAUUAAAGCCAAAAGUGGCUUUGAUGUUUCUAUGAUAAGGGUUUCGACCCGUGGCGUCGGGGAUCGCCUGCCCAUUGAAAUGGGCUUCUCCCCAU
DNA 1: ATATTTTCTTTAATGGTGCCAGGCA
DNA 2: TGCCTGGCACCATTAAAGAAAATAT
Molecule B3 gave an activity in series [1] of 12.7 % mutated reads.
